Measurements reported in PMC3243626 (The EMBO Journal, 2011).
One block for each binder: values may come before it. Square brackets hold non-standard residues; d marks the D form. Ends that are not written are not given here. * marks the point of attachment. Biotin = O=C1N[C@H]2[C@H](CS[C@H]2CCCCC(=O)*)N1; pT = C[C@@H](OP(=O)(O)O)[C@H](N)C(=O)O; pS = N[C@@H](COP(=O)(O)O)C(=O)O

Key:
[1] = biological target: T1, GST–Dpb11-N (BRCT1&2, aa 1–275) (S. cerevisiae, UniProt P47027 1-275); test: pull-down
T1 sequence (looked up): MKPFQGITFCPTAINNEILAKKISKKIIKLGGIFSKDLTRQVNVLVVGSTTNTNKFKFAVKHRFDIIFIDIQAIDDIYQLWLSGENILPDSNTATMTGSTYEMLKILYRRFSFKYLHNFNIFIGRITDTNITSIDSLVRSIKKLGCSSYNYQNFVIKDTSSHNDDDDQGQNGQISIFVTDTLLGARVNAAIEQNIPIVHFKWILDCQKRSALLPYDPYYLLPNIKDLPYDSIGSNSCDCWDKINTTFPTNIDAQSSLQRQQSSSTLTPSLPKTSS

[2] = biological target: immunopurified Mec1–18myc–Ddc2 (S. cerevisiae, UniProt P38111 1-2368; Q04377 1-747); test: pull-down
immunopurified Mec1–18myc–Ddc2, sequence (P38111 whole entry, chain 1 of 2): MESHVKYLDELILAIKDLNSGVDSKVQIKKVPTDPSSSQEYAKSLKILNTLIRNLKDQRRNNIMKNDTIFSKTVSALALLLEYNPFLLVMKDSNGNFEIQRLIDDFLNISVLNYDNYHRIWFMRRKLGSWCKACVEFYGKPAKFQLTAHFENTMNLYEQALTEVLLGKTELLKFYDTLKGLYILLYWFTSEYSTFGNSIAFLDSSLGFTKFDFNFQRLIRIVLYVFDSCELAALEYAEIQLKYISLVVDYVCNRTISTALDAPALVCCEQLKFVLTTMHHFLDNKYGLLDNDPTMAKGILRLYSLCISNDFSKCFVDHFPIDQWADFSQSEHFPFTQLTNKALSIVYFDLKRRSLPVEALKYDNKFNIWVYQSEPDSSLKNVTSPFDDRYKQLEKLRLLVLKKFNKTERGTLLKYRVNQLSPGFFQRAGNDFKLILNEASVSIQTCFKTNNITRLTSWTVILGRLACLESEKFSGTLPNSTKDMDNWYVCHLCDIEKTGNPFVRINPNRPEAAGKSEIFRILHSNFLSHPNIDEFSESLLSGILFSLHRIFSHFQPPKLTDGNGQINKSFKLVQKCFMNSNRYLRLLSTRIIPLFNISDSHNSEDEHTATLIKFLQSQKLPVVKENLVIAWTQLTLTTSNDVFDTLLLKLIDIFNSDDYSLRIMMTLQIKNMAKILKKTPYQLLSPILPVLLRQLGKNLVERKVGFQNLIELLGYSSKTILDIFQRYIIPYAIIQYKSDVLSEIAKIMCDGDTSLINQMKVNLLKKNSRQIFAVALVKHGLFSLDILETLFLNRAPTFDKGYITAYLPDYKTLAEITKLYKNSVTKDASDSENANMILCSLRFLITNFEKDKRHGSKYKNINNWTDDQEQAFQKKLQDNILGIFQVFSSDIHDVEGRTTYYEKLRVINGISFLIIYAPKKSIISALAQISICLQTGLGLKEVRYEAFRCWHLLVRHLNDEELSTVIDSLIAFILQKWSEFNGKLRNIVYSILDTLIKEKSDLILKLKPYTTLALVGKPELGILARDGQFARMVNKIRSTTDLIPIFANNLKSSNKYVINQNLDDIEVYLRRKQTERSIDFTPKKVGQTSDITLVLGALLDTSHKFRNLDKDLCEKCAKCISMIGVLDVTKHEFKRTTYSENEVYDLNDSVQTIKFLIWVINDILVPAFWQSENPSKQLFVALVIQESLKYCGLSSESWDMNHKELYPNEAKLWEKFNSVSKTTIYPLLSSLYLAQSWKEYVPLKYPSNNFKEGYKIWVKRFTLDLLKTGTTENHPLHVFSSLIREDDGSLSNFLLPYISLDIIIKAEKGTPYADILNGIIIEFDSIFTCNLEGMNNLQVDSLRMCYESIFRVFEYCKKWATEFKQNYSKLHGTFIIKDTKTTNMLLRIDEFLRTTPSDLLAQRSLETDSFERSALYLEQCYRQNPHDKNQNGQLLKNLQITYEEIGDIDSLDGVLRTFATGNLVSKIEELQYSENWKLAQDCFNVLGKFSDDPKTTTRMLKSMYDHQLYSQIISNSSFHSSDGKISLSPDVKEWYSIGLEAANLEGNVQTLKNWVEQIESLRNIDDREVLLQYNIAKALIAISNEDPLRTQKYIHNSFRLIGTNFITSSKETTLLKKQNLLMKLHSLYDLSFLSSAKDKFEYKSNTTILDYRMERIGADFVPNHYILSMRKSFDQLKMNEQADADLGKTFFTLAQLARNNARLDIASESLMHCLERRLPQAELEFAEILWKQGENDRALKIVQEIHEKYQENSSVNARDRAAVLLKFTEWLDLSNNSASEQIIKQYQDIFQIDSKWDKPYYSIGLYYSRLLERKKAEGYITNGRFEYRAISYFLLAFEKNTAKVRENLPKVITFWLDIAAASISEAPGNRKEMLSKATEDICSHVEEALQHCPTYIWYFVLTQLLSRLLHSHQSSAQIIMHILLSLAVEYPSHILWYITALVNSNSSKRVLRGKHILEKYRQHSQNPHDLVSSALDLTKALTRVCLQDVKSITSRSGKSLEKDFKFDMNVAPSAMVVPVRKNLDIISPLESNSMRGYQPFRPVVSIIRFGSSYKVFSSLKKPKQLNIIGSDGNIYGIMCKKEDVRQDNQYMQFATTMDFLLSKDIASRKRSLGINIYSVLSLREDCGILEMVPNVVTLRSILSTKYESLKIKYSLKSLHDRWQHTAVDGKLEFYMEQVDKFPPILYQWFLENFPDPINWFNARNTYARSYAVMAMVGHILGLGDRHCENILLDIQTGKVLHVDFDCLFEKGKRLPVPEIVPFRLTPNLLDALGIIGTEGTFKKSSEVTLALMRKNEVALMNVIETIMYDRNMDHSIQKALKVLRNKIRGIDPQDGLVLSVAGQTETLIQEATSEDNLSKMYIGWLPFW
immunopurified Mec1–18myc–Ddc2, sequence (Q04377 whole entry, chain 2 of 2): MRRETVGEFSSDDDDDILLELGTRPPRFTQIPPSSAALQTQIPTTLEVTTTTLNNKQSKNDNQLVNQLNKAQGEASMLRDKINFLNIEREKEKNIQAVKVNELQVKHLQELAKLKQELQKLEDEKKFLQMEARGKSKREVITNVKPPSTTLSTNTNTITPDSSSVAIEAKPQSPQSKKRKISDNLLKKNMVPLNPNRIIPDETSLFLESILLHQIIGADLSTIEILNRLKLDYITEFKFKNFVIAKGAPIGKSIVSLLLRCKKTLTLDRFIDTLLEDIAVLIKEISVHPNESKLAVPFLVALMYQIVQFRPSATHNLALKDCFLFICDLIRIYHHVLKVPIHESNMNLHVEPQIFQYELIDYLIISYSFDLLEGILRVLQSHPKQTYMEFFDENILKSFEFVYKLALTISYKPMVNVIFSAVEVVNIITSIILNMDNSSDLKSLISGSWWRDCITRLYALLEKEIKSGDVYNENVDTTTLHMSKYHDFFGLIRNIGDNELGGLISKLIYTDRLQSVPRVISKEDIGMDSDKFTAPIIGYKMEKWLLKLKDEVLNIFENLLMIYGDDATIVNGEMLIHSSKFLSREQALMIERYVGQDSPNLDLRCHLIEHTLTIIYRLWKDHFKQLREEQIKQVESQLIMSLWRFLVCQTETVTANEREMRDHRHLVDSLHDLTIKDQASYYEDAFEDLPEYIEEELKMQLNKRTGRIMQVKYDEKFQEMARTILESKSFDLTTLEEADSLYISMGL

binding result [1]: binds
B1: Rad9 phospho-T474 peptide (biotinylated 35mer) (peptide, UniProt P14737 449-483, looked up)
peptide: TGQTEEIKTQIINSPEQNALNATFE[pT]PVTLSRINF
modifications: not fully specified (residue 23, N-terminus)

binding result [1]: binds
B2: Rad9 phospho-S462 peptide (biotinylated 35mer) (peptide, UniProt P14737 437-471, looked up)
peptide: {Biotin-EAhx}-GISAQKGPVFHSTGQTEEIKTQIIN[pS]PEQNALNAT

binding result [2]: binds
B3: recombinant, full-length, His-tagged Dpb11 (natural protein, S. cerevisiae, UniProt P47027 1-764, looked up)
chain: MKPFQGITFCPTAINNEILAKKISKKIIKLGGIFSKDLTRQVNVLVVGSTTNTNKFKFAVKHRFDIIFIDIQAIDDIYQLWLSGENILPDSNTATMTGSTYEMLKILYRRFSFKYLHNFNIFIGRITDTNITSIDSLVRSIKKLGCSSYNYQNFVIKDTSSHNDDDDQGQNGQISIFVTDTLLGARVNAAIEQNIPIVHFKWILDCQKRSALLPYDPYYLLPNIKDLPYDSIGSNSCDCWDKINTTFPTNIDAQSSLQRQQSSSTLTPSLPKTSSLLNKFKPKGEKIWDKAMSLQQHSKTNFSVLGQSPLSINNKQEDLSDNSTLIFKNCAFIIHHIFPGNHRSILTKIVVQNGGKIETSYLSGIYDHSYYIIPSNKALDSFNDLPEIIDDNDGIVTEFFIERCLYYQKLLHPIDLWSKPFLSTIEFQVSSSSKLLHHEFSSSPFLNVTITGFSGVELLHLTKVLNLLKPMGINYVEYLNKSTDILLINLAALPSIPKTHPLWSNEFSDLFTQFCINNNNDDPGDNNRKDFQNNSILRNSMKRKIEYIKKFHSIPVVTPAFIFKLLSAASGENNEIFLNNIKWCIICPRGHKDDFKCKIKKPYYTSISSEKKYQNNDPKIDKTILLKRNNSSLSEHSMKDTKNELLQKIRETDSGRKKRSVSSSIMDVSSERQMPDTKRIKLESLPKNFVPKQIKRTTSWGTIMSENVPTEQPTAISNPEEIPRTEEVSHTQVTYGSIQDKKRTASLEKPMRRQTRNQTKELDS
